In paper PMC6691507 (Biochemistry, 2019):

Molecular target: PAD2 D177A mutant, purified recombinant (human (from the printed UniProt entry …, UniProt Q9Y2J8 1-665, D177A))
Test: co-IP

Sequence of PAD2 D177A mutant, purified recombinant (human (Q9Y2J8 whole entry D177A): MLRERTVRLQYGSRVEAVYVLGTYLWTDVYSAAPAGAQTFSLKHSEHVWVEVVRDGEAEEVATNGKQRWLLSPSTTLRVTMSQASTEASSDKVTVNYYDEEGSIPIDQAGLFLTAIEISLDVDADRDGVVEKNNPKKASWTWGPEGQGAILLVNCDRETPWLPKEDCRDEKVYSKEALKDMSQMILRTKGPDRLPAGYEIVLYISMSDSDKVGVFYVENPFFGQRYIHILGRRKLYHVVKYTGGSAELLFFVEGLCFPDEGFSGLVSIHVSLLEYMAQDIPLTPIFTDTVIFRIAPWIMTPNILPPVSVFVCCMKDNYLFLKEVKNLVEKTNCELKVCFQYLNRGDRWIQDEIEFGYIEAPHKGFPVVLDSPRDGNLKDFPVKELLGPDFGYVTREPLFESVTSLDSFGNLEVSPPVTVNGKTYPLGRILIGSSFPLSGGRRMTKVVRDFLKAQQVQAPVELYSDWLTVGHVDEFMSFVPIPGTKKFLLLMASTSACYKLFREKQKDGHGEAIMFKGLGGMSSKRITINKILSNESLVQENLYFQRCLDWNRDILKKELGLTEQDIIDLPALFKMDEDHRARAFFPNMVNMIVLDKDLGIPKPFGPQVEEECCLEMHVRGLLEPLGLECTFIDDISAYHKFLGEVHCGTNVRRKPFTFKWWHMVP

B1: Annexin A5 (ANXA5), purified recombinant (natural protein, UniProt P08758 1-320, looked up)
chain: MAQVLRGTVTDFPGFDERADAETLRKAMKGLGTDEESILTLLTSRSNAQRQEISAAFKTLFGRDLLDDLKSELTGKFEKLIVALMKPSRLYDAYELKHALKGAGTNEKVLTEIIASRTPEELRAIKQVYEEEYGSSLEDDVVGDTSGYYQRMLVVLLQANRDPDAGIDEAQVEQDAQALFQAGELKWGTDEEKFITIFGTRSVSHLRKVFDKYMTISGFQIEETIDRETSGNLEQLLLAVVKSIRSIPAYLAETLYYAMKGAGTDDHTLIRVMVSRSEIDLFNIRKEFRKNFATSLYSMIKGDTSGDYKKALLLLCGEDD
B1: binds.
